This passage reports Kd, koff and kon results from US20110054149A1 (published 2011).

Changes are numbered by the printed parent chain.

First the molecules themselves.
B1: H14L16 (antibody, human IgG1, kappa, V domains shown)
VH: QVQLVQSGAEVVKPGASVKLSCKASGYTFTSYWMHWVKQAPGQGLEWIGNINPSNGGTNYNEKFKSRATLTRDTSTSTAYMELSSLRSEDTAVYYCELGQGYWGQGTLVTVSS
VL: DIVMTQSPLSNPVTLGQPVSISCRSSKSLLYKDGKTYLNWFLQRPGQSPQLLIYLMSTRASGVPDRFSGGGSGTDFTLKISRVEAEDVGVYYCQQLVEYPLTFGQGTKLEIKR
notes: Humanised 2A10; human gamma-1 mutated constant region, human kappa
B2: H14L18 (antibody, human IgG1, kappa, V domains shown)
VH: B1 VH
VL: B1 VL with S7D, P64S, G70S
notes: as for B1
B3: HcL11 (antibody, human IgG1, kappa)
heavy: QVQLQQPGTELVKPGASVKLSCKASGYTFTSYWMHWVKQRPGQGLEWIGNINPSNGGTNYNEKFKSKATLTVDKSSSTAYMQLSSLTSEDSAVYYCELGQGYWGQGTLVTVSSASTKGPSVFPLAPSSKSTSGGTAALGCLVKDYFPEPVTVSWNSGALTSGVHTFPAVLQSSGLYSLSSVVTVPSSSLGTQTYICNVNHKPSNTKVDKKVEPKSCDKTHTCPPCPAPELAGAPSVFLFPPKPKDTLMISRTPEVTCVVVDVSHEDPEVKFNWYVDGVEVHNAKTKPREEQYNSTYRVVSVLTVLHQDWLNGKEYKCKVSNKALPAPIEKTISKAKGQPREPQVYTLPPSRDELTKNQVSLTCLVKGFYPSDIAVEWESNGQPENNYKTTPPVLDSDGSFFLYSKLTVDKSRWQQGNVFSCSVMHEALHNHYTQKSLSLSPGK
light: DIVITQSPLSLPVTLGQPASISCRSSKSLLYKDGKTYLNWFQQRPGQSPQLLIYLMSTRASGVPDRFSGGGSGTDFTLKISRVEAEDVGVYYCQQLVEYPLTFGQGTKLEIKRTVAAPSVFIFPPSDEQLKSGTASVVCLLNNFYPREAKVQWKVDNALQSGNSQESVTEQDSKDSTYSLSSTLTLSKADYEKHKVYACEVTHQGLSSPVTKSFNRGEC
notes: Chimeric heavy chain Hc paired with humanised light chain L11
B4: H10L13 (antibody, V domains shown)
VH: B1 VH with V12K, R72V, T74K
VL: DIVMTQSPLSLPVTLGQPASISCRSSKSLLYKDGKTYLNWFQQRPGQSPQLLIYLMSTRASGVPDRFSGGGSGTDFTLKISRVEAEDVGVYYCQQLVEYPLTFGQGTKLEIK
B5: H6L6 (antibody, human IgG1, kappa, V domains shown)
VH: B1 VH with V12K, L20V, K38R, L70M
VL: B1 VL with N11L, L15P, Q17E, V19A, G70S, Q105G, L109V
notes: as for B1
B6: HcL13 (antibody, human IgG1, kappa)
heavy: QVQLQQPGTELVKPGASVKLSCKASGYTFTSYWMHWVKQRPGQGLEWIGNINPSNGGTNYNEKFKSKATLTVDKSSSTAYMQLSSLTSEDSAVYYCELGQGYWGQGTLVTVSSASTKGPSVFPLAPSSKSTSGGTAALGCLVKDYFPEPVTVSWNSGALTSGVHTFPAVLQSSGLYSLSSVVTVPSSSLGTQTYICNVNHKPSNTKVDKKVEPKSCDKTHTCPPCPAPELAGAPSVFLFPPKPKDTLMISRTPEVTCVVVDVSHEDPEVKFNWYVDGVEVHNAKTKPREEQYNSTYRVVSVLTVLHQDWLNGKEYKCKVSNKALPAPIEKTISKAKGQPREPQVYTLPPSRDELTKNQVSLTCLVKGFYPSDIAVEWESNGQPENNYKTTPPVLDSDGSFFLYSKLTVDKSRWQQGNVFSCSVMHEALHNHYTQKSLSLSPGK
light: B3 light with I4M
notes: Chimeric heavy chain Hc paired with humanised light chain L13
B7: H5L6 (antibody, human IgG1, kappa, V domains shown)
VH: B1 VH with V12K, L20V, K38R, I48M, A68V, L70M
VL: B1 VL with N11L, L15P, Q17E, V19A, G70S, Q105G, L109V
notes: as for B1
B8: H700L11 (antibody, human IgG1, kappa, V domains shown)
VH: B1 VH with V12K, L20V, K38R, R72V, T74K
VL: B1 VL with M4I, N11L, V19A, L42Q
notes: as for B1
B9: H14L13 (antibody, human IgG1, kappa, V domains shown)
VH: B1 VH
VL: B1 VL with N11L, V19A, L42Q
notes: Humanised 2A10; tested as CHO-K1 transfection supernatant; Human gamma-1 mutated constant region, human kappa
B10: H17L13 (antibody, human IgG1, kappa)
heavy: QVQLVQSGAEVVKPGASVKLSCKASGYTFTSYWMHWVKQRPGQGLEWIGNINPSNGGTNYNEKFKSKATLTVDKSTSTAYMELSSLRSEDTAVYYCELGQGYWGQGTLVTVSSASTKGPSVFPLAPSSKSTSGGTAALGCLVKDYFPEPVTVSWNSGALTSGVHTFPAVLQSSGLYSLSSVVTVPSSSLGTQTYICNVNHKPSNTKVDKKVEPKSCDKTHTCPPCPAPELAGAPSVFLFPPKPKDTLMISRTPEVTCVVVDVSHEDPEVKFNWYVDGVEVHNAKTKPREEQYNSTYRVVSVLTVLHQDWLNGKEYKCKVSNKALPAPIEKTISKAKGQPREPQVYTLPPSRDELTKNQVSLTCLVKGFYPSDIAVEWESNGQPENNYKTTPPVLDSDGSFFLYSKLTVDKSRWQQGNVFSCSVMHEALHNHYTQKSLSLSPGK
light: B3 light with I4M
notes: as for B9
B11: H6L15 (antibody, human IgG1, kappa, V domains shown)
VH: B1 VH with V12K, L20V, K38R, L70M
VL: B1 VL with N11L, V19A, P64S
notes: as for B9
B12: H18L18 (antibody, human IgG1, kappa, V domains shown)
VH: B1 VH with A40R, R67K, R72V, T74K, T76S, T91S
VL: B1 VL with S7D, P64S, G70S
notes: as for B9
B13: H15L16 (antibody, human IgG1, kappa, V domains shown)
VH: B1 VH with A40R, R67K, R72V, T76S, T91S
VL: B1 VL
notes: as for B9
B14: H16L13 (antibody, human IgG1, kappa)
heavy: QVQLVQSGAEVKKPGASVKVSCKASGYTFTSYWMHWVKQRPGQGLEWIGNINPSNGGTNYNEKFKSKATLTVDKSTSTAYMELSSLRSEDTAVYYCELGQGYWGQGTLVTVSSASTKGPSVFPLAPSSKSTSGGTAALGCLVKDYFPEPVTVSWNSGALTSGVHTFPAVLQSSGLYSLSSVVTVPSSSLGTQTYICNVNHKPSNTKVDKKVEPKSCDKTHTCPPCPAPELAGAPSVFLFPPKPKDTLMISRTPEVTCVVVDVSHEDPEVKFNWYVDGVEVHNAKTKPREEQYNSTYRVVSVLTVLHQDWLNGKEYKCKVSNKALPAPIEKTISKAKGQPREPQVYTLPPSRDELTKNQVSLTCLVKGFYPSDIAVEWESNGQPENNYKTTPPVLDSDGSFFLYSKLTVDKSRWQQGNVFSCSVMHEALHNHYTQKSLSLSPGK
light: B3 light with I4M
notes: as for B9
B15: H6L14 (antibody, human IgG1, kappa)
heavy: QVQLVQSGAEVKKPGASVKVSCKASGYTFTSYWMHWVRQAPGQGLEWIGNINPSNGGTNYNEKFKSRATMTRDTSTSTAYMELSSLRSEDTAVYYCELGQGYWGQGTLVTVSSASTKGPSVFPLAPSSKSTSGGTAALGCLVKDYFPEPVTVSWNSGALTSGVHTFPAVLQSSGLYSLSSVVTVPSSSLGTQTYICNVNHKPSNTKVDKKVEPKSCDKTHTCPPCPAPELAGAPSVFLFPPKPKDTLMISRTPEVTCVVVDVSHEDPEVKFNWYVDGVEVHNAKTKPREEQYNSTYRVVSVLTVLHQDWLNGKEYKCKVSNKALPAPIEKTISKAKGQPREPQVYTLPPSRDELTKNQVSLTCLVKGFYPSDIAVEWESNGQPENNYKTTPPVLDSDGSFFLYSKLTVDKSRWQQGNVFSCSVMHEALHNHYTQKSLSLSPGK
light: B3 light with I4M, Q42L
notes: as for B9
B16: H6L18 (antibody, human IgG1, kappa, V domains shown)
VH: B1 VH with V12K, L20V, K38R, L70M
VL: B1 VL with S7D, P64S, G70S
notes: as for B9
B17: H15L18 (antibody, human IgG1, kappa, V domains shown)
VH: B1 VH with A40R, R67K, R72V, T76S, T91S
VL: B1 VL with S7D, P64S, G70S
notes: as for B9
B18: H15L13 (antibody, human IgG1, kappa, V domains shown)
VH: B1 VH with A40R, R67K, R72V, T76S, T91S
VL: B1 VL with N11L, V19A, L42Q
notes: as for B9
B19: H6L16 (antibody, human IgG1, kappa)
heavy: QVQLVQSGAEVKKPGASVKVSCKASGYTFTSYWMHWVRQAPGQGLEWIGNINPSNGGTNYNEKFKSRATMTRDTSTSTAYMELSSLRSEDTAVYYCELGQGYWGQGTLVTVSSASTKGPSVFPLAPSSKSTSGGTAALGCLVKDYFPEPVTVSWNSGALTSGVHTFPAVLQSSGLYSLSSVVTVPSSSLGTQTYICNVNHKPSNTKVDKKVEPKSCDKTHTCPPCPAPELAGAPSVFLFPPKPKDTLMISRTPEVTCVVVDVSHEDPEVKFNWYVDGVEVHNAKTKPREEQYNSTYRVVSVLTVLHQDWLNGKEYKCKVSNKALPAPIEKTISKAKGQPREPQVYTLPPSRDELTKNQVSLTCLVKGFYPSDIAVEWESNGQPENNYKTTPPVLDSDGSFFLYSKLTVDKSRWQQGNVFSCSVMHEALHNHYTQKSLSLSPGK
light: B3 light with I4M, L11N, A19V, Q42L
notes: as for B9
B20: H18L13 (antibody, human IgG1, kappa, V domains shown)
VH: B1 VH with A40R, R67K, R72V, T74K, T76S, T91S
VL: B1 VL with N11L, V19A, L42Q
notes: as for B9
B21: H6L17 (antibody, human IgG1, kappa, V domains shown)
VH: B1 VH with V12K, L20V, K38R, L70M
VL: B1 VL with S7D, N11L, V19A, L42Q, P64S, G70S
notes: as for B9
B22: H17L16 (antibody, human IgG1, kappa)
heavy: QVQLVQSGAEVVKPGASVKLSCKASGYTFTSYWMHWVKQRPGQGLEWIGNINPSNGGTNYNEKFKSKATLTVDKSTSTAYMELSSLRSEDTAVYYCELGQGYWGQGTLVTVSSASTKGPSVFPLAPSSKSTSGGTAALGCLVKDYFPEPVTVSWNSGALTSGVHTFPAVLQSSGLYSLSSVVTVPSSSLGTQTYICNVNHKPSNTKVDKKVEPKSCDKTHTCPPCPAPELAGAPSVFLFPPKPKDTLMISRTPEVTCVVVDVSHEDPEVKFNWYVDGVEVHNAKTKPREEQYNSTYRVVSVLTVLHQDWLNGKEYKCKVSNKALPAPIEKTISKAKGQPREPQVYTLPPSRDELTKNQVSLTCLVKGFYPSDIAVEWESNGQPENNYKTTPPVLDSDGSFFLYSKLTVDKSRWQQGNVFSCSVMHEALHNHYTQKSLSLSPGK
light: B3 light with I4M, L11N, A19V, Q42L
notes: as for B1

The first assay deals with T1, GST-human NOGO-A56 (human, UniProt Q9NQC3 586-785).
T1 construct: also called hNOGO; recombinant human NOGO; not shown: Glutathione S-transferase (GST) tag encoded by vector pGEX-6P1, N-terminal to the NOGO-A fragment; the tag and linker se
T1 sequence: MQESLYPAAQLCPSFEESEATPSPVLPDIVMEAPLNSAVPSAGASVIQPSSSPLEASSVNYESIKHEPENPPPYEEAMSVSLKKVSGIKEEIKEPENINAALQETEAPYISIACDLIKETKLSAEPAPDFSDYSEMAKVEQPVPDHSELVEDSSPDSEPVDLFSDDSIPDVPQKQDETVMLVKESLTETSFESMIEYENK
As to the kind of experiment: SPR (Biacore 3000), GST-human NOGO-A56 on CM5 chip, antibody as analyte; single experiment. The procedure:
(§1) The binding kinetics of the anti-NOGO monoclonal antibody (mAb) to recombinantly expressed human NOGO-A (GST-human NOGO-A56) was analysed using the Biacore3000 biosensor. The hNOGO-A chip was prepared as follows:
(§2) hNOGO (GST-human NOGO-A56) was immobilised to a CM5 chip by primary amine coupling using the Biacore Wizard program designed for targeted immobilisation levels. The CM5 sensor surface was activated by passing a solution of 50 mM N-hydroxy-succinimide (NHS) and 200 mM N-ethyl-N′-dimethylaminopropyl […] (EDC). Then hNOGO in sodium acetate buffer, pH5.0 or pH 4.5, was passed over the chip and immobilised. After immobilisation was complete any still activated esters were blocked by an injection of 1M ethanolamine hydrochloride, pH8.5.
(§3) The anti-NOGO mAbs were diluted down in HBS-EP (10 mM HEPES, pH 7.4, 150 mM NaCl, 3 mM EDTA, and 0.005% P-20 surfactant) and binding studies were carried out at range of defined antibody concentrations. All runs were referenced against a blanked sensor surface (one that had been activated and blocked as described earlier but had no addition of ligand). Analysis of binding was carried out using the BIAevaluation kinetic analysis software version 4.1. Biacore analysis of other antibodies of the invention essentially followed the same protocol as described herein.
(Surface plasmon resonance follows binding to a sensor surface in real time, without labels.)
As for B1, the Kd worked out at 3.6 nM, the koff came to 0.00739 s⁻¹ and the on-rate constant (kon) was determined as 2.05e+06 M⁻¹ s⁻¹.

Regarding B2, binding was characterised by a dissociation constant (Kd) of 3.6 nM, the koff was determined as 0.00869 s⁻¹ and the kon came out at 2.41e+06 M⁻¹ s⁻¹.

The next assay concerns the target T1, GST-human NOGO-A56. Described as above. The source holds these as a separate data set. The procedure:
as §1, §2, §3
Turning to B3, the Kd was found to be 3.55 nM, the koff is 0.0134 s⁻¹ and the kon was determined as 3.78e+06 M⁻¹ s⁻¹. For B4, in that order: 12.9 nM, 0.0212 s⁻¹ and 1.64e+06 M⁻¹ s⁻¹. Molecule B5 had a Kd of 21.4 nM, a koff of 0.0254 s⁻¹ and an on-rate (kon) of 1.2e+06 M⁻¹ s⁻¹.

Molecule B6 had a Kd of 1.98 nM, a koff of 0.00938 s⁻¹ and an association rate constant (kon) of 4.8e+06 M⁻¹ s⁻¹. Consider B7, for which binding was put at a Kd of 30.3 nM, the off-rate constant (koff) stood at 0.047 s⁻¹ and the kon worked out at 1.5e+06 M⁻¹ s⁻¹. For B8, in that order: 19.4 nM, 0.0233 s⁻¹ and 1.19e+06 M⁻¹ s⁻¹.

In a further assay the target is T1, GST-human NOGO-A56. Kind of assay: SPR off-rate ranking (Biacore), CHO-K1 transfection supernatant over GST-human NOGO-A56 chip; single experiment. The procedure:
as §2
The hNOGO chip was prepared as for kinetic analysis. Cell supernatants where taken directly from transient transfections of CHO—K1 cells. These were passed directly over the sensor surface and the interaction measured. A mock transfected cell supernatant was used for double referencing to remove any artefacts due to the tissue culture media. All runs were referenced against a blanked sensor surface (one that had been activated and blocked as described earlier but had no addition of ligand). Analysis of binding was carried out using the BIAevaluation kinetic analysis software version 4.1.
In turn, B9 showed a koff of 0.0138 s⁻¹. On the same count and under the same terms, as for B1, the figure is 0.0089 s⁻¹; as for B2, 0.00835 s⁻¹. Same read-out and setting: under B10 stands 0.00931 s⁻¹; under B11, 0.0211 s⁻¹; under B12, 0.0058 s⁻¹. In turn, B13 registered a koff of 0.00604 s⁻¹.

B14 had an off-rate (koff) of 0.00907 s⁻¹. With B15, the koff came out at 0.0457 s⁻¹. With B16, the koff stood at 0.0106 s⁻¹. Against the preceding molecule, the koff is about 4.3-fold lower. Still for that read-out and setting: as for B17, the figure is 0.00594 s⁻¹; as for B18, 0.00965 s⁻¹. In turn, B19 had a koff of 0.0114 s⁻¹. The same measure, in the same setting: under B20 stands 0.00907 s⁻¹; under B21, 0.0158 s⁻¹.

A further assay has as its target T1, GST-human NOGO-A56. As to the kind of experiment: SPR (Biacore 3000), GST-human NOGO-A56 amine-coupled to CM5 chip, antibody as analyte; mean (SD) of four experiments. The procedure:
as §1, §2, §3
B22 displayed a Kd of 1.82 nM, an off-rate (koff) of 0.0061 s⁻¹ and an association rate constant (kon) of 3.38e+06 M⁻¹ s⁻¹.

The Kd is the free concentration of one partner at which half of the binding sites on the other are occupied at equilibrium, for simple one-to-one binding. Read a high Kd as a looser complex. By koff is commonly meant a measure of how fast the partners let go of each other. A low value points to a long-lived complex. For orientation: kon means a measure of how fast the partners come together. Higher therefore signals fast association.
